# From paper PMC5648196, “The transcriptional regulator LysG (Rv1985c) of Mycobacterium tuberculosis activates lysE (Rv1986) in a lysine-dependent manner”
# T1: LysG(Mt) (Mycobacterium tuberculosis) (UniProt P9WMF5)
# T1 sequence: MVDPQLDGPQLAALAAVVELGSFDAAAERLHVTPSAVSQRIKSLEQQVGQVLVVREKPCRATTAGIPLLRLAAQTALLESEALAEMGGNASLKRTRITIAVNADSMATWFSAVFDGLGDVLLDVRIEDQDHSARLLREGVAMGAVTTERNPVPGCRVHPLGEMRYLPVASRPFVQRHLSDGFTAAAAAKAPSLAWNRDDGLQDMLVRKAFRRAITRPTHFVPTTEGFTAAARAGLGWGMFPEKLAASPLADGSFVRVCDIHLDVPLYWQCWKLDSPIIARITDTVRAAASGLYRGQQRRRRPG
# T2: LysG(Mt) (Mycobacterium tuberculosis, UniProt P9WMF5 1-303)
# T2 sequence: T1 sequence
# B1: oligonucleotide IV (dsDNA)
# DNA 1: CGCACTGCACATTAATAATGCTAATGTAAATGAAGAATTATTAGCTATACTGAC
# DNA 2: GTCAGTATAGCTAATAATTCTTCATTTACATTAGCATTATTAATGTGCAGTGCG
# B2: oligonucleotide III (dsDNA)
# DNA 1: AAATGAAGAATTATTAGCTATACTGACCCATACAAACTGCCTAGTGTCGATTGC
# DNA 2: GCAATCGACACTAGGCAGTTTGTATGGGTCAGTATAGCTAATAATTCTTCATTT
# B3: oligonucleotide II (dsDNA)
# DNA 1: CTCAGGTGTAGACCATCTGCGGAGCGTCGCACTGCACATTAATAATGCTAATGT
# DNA 2: ACATTAGCATTATTAATGTGCAGTGCGACGCTCCGCAGATGGTCTACACCTGAG
# Assays:
# [1] = target: T1, LysG(Mt) (Mycobacterium tuberculosis); test: EMSA
# [2] = target: T2, LysG(Mt); test: EMSA; 200 pmole LysG, 10 fmole DNA; conditions: protein: recombinant, tags: His6 (pQE30-LysG(Mt)x6His), chain copies: 4, blunt
molecule,measurement,setting,value
TTCAGACCGGCACGTTTCAGAGCGGTGGGGATGTCCCGACGTGCGATCCGACAGGGGTTCGCAGGGTCCGCAAAAAACATAGTGAACGCCAGAAAGCCGAATGGGAGTACAAGGCGATGCCGGT (double strand) [oligonucleotide V (fadD26 upstream)],binding,[1],no binding
CGCTGCGGTCATTGTGTTCCTCTTAGTCGTTCCGAAAGTTGTTCCAACAACTCGGCTTCGGTCAGTTCGTGGTAGGAGTCGGTGGCTTGCTGGGTTGCGACTGCGGTTGCCCCAATTTCGAGGAGCTCAGGC (double strand) [oligonucleotide VII (ppsC upstream)],binding,[1],no binding
B1,binding result,[2]; label: 5'-biotin on reverse strand (838),binds
B2,binding result,[2]; label: 5'-biotin on reverse strand (836),no binding
B3,binding result,[2]; label: 5'-biotin on reverse strand (834),no binding
